Experimental data: the supplement of paper PMC9170038

System: MS2 coat protein
Experiment: apparent KD of MS2 coat protein; designed switch direction (-1 OFF switch, 1 ON switch): 1; higher = weaker reporter binding
Procedure, shortened: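 Designed RNA switches sharing common flanks were transcribed on Illumina chips by stalled E. coli RNA polymerase. They were titrated with SNAP-549-labelled MS2 coat protein, from 0.7 or 1.5 nM doubling to 3 µM, in Tris-HCl pH 7.5 buffer with KCl, MgCl2, BSA, DTT, tRNA and Tween-20. Titrations ran without input, with 200 uM small-molecule ligand, or with an oligonucleotide input. The apparent KD of each design is the median over its clusters, after curve-fitting of normalised cluster fluorescence.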

[1] = input ligand: microRNA oligo, concentration not stated
[2] = Eterna round: R95, input ligand: FMN 200 uM
[3] = Eterna round: R95, input ligand: microRNA oligo, concentration not stated
[4] = Eterna round: R95, input ligand: none

Sequence	apparent KD of MS2 coat protein (input ligand: FMN 200 uM)	apparent KD of MS2 coat protein [1]	apparent KD of MS2 coat protein (input ligand: none)	apparent KD of MS2 coat protein [2]	apparent KD of MS2 coat protein [3]	apparent KD of MS2 coat protein [4]
GGACGUCAUCUCACUGAUUAAACAUGAGGAUCACCCAUGUCACAGGAUAUGGAUCCGAUUAGGAUCCAGAAGGGUGUGACGUCC [Fiskers NG3ss - 43] (Eterna round: R96, puzzle: Same State NG 3)	0.0214 µM	0.0193 µM	0.0242 µM			
GGACGUCAUCUCACUGAUUAAACAUGAGGAUCACCCAUGUCAGAGGAUAUGAGUCCGAUUAGGACUCAGAAGGCUGUGACGUCC [Fiskers NG3ss - 46] (Eterna round: R96, puzzle: Same State NG 3)	0.0196 µM	0.00914 µM	0.016 µM			
GGAGAGAGAGCGCAGGAUAUUCAAGGAGAAACAUGAGGAUCACCCAUGUGAGAGAGAGAGGAGAGGGAGAAGGGUGAGAGAGAGG [Altered State 2-13 - Jieux - Same State 2] (puzzle: Same State 2)				0.0231 µM	0.0304 µM	0.0336 µM
GGAGCCAAGGCAGGAUAUUCAUAUUAAUAAACAUGAGGAUCACCCAUGUAGGCCAGAAGGCCUUGGGAGAAGGGCCAUGGCUCG [Xeonanis - 13 mod5] (Eterna round: R96, puzzle: Same State NG 2)	0.0213 µM	0.12 µM	0.196 µM			
GGAGCCGGCACCGAGGAUAUUCAUAUUAAAACAUGAGGAUCACCCAUGUACGCCAGAAGGCGUUGGGAGAAGGCGGAUCGGCUCG [Xeonanis - 22] (puzzle: Same State 2)				0.0576 µM	0.0799 µM	0.362 µM
GGAGCCGGCCUAGGAUAUUUCAUAAAAUAACAUGAGGAUCACCCAUGUAGGCCAGAAGGCCUUGGGAAGAAGGAGGUCGGCUCC [Loop Effect - U28] (Eterna round: R96, puzzle: Same State NG 2)	0.0134 µM	0.0231 µM	0.0444 µM			
GGAGCCGGCCUAGGAUAUUUCAUCAAAAAACAUGAGGAUCACCCAUGUAGGCCAGAAGGCCUUGGGAAGAAGGAGGUCGGCUCC [Loop Effect - C24] (Eterna round: R96, puzzle: Same State NG 2)	0.0102 µM	0.0146 µM	0.019 µM			
GGAGCCUGCACUGAGGAUAUUCGUAGUGUAACAUGAGGAUCACCCAUGUGUCGCCGUAGCGACUGGGAGAAGGCAGUGCGGCUCG [JL-ss2-3.07 ViennaUCT mod] (puzzle: Same State 2)				0.0259 µM	0.0484 µM	0.0843 µM
GGAGCUGGCACCGAGGAUAUUCAUAUUAAAACAUGAGGAUCACCCAUGUAGGCCAGAAGGCCUUGGGAGAAGGCGGAUCAGCUCG [Xeonanis - 12] (puzzle: Same State 2)				0.0308 µM	0.532 µM	0.532 µM
GGAUGACGGACAGGAUAUUGGUGCUAAUGGUGUCAAGAAGGGUCUUCGAUAUAUACGACCAGUUACAUGAGGAUCACCCAUGUU [JR_SSNG1_Sub034] (Eterna round: R96, puzzle: Same State NG 1)	0.0202 µM	0.0305 µM	0.04 µM			
GGAUGAUAGAUAGGAUAUUGAUUGUAAUUAUGUCAAGAAGGAUCUUUGAUUUAAACGACCAGUUACAUGAGGAUCACCCAUGUU [JR_SSNG1_Sub087] (Eterna round: R96, puzzle: Same State NG 1)	0.0233 µM	0.0304 µM	0.0436 µM			
GGAUGAUUAAUAGGAUAUUAUUUGUAAAAUGGUUAAGAAGGAUUAAUGAUUUAAACGACCAGAUACAUGAGGAUCACCCAUGUA [JR_SSNG1_Sub091] (Eterna round: R96, puzzle: Same State NG 1)		0.0195 µM				
GGCACAAAAGCACAGGAUAUGCAAAAGAACACAUGAGGAUCACCCAUGUAGCCAAAUAACGGGCAGCAGAAGGGUGGGACUGCCA [Ceridi] (puzzle: Same State 2)				0.0782 µM	0.693 µM	0.485 µM
GGCAGGUGCAGGCUUGCUUGCACCUGGAAACAUGAGGAUCACCCAUGUUUGGGACAAGCUUUGCUCCUCGUCUUAUC [JL ViennaUCT Isusreraar mod 1] (puzzle: Sensor for hsa-mir-208a)				0.179 µM	0.0431 µM	0.232 µM
